Measurements taken from patent publication US12545899B2, “Luciferase enzymes for use with thermostable luciferins in bioluminescent assays” (Promega Corporation, priority 2018, dated 2026).

How the values were obtained:
[1] = Kinetic analysis of thermostable variants with CS0280 (Tables 13, 14); format: biochemical; settings: 2 mM ATP
Description: (§1) Tables 13 and 14 include representative results of kinetic analysis of the thermostable variants with D/L luciferin, CS0333, and CS0280. The panel of enzyme variants highlight amino acid substitutions that further improve upon MK0137 in maximum luminescence (Vmax) or Km in different buffers with the different substrates tested (D/L-luciferin, CS0333, and CS0280). In particular, enzyme variants MK0151 and MK153 show improvements relative to MK0137 across multiple buffers with multiple substrates.

[2] = Kinetic analysis of thermostable variants with D/L-luciferin (Tables 13, 14); format: biochemical; settings: 2 mM ATP
Description: as §1

[3] = Luminescence at 1 mM CS0333 (Table 11); format: biochemical; settings: 1 mM substrate, 1 mM ATP
Description: (§2) Tables 10 and 11 include representative results of kinetic analysis of the thermostable variants with D/L luciferin, CS0333, and CS0280. […] MK0135 and MK0137 have amino acid substitutions that improve thermostability relative to MK0133 and MK0134, respectively, while retaining activity on the luciferin analogs CS0333 and CS0280.

[4] = Kinetic analysis of thermostable variants with CS0333 (Tables 13, 14); format: biochemical; settings: 2 mM ATP
Description: as §1

[5] = Luminescence at 1 mM D/L-luciferin (Table 11); format: biochemical; settings: 1 mM substrate, 1 mM ATP
Description: as §2

[6] = Luminescence at 1 mM CS0280 (Table 11); format: biochemical; settings: 1 mM substrate, 1 mM ATP
Description: as §2

[7] = Differential scanning fluorimetry (DSF) analysis; format: physicochemical; settings: Table 12
Method in brief: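 Enzymes mixed with Sypro Orange at 5× final, heated 30–95° C at 1° C per minute with fluorescence read every 60 s. Storage buffer 50 mM HEPES pH 7.5, 100 mM NaCl, 2 mM EDTA, or for luciferase variants 20 mM HEPES pH 7.5, 200 mM NaCl, 1 mM EDTA; per-minute fluorescence change plotted against temperature.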

[8] = Kinetic analysis of thermostable variants with 400 fM-4 mM CS0280 (Table 12); format: biochemical; settings: 4 mM ATP
Procedure: Table 12 includes representative results of kinetic analysis of the thermostable variants with 400 fM-4 mM CS0280. This panel of enzyme variants have a combination of improved thermostability and brightness with CS0280 relative to their progenitor enzyme variants MK134 and MK137.

Row | Molecule | Km ([1]; BrightGlo Buffer) | Vmax (RLU) ([1]; BrightGlo Buffer) | Km ([1]; Detection Reagent Buffer) | Vmax (RLU) ([1]; Detection Reagent Buffer) | Km ([2]; BrightGlo Buffer) | Vmax (RLU) ([2]; BrightGlo Buffer) | Km ([2]; Detection Reagent Buffer) | Vmax (RLU) ([2]; Detection Reagent Buffer) | Km ([4]; BrightGlo Buffer) | Vmax (RLU) ([4]; BrightGlo Buffer) | Km ([4]; Detection Reagent Buffer) | Vmax (RLU) ([4]; Detection Reagent Buffer) | DSF Tm (° C.) [7] | Km ([8]; BrightGlo Buffer) | Vmax (RLU) ([8]; BrightGlo Buffer) | Km ([8]; Detection Reagent Buffer) | Vmax (RLU) ([8]; Detection Reagent Buffer) | further results
1 | MK0148: SEQ ID NO: 114; H244W+S193A+N228D+L305F+S306P+I109V+C38R+F55I+Y108F+A316W+Y339M+T342S+V348I+C257R+T289S+S313T+D435G+L437R+W510R (protein) MADKNILYGPEPFYPLEDGTAGEQMFDALSRYAAIPGRIALTNAHTKENVLYEEILKLSCRLAESFKKYGLKQNDTIAVCSENSLQFFLPVIASLYLGIIVAPVNDKFVERELIHSLGIVKPRIVFCSKNTFQKVLNVKSKLKSIETIIILDLNEDLGGYQCLNNFISQNSDSNLDVKKFKPYSFNRDDQVAAIMFSSGTTGLPKGVMLTHKNIVARFSIAKDPTFGDAINPTSAILTVIPFHWGFGMMTTLGYFTCGFRVVLMHTFEEKLFLQSLQDYKVESTLLVPTLMAFLAKSALVEKYDFPHLKEIATGGWPLSKEIGEMVKKRFKLNFVRQGMGLSETTSAILITPKGDAKPGSTGKIVPLHAVKVVDPTTGKILGPNEPGELYFKGPMIMKGYYNNEEATKAIIDNDGWLRSGDIAYYDNDGHFYIVGRRKSLIKYKGYQVAPAEIEGILLQHPYIVDAGVTGIPDEAAGELPAAGVVVQTGKYLNEQIVQDYVASQVSTAKWLRGGVKFLDEIPKGSTGKIDRKVLRQMLEKHTNGHHHHHHHH | 8.94 µM | 359,383 RLU | 619 µM | 26,247 RLU | 0.0737 µM | 1,993,509 RLU | 0.21 µM | 332,703 RLU | 8.44 µM | 2,895,248 RLU | 48.4 µM | 543,865 RLU |  |  |  |  |  | Vmax (RLU) CS0333 BrightGlo Buffer ([3]; BrightGlo Buffer): 3,525,730 RLU; Vmax (RLU) CS0333 Detection Reagent Buffer ([3]; Detection Reagent Buffer): 2,139,740 RLU; Vmax (RLU) D/L-luciferin BrightGlo Buffer ([5]; BrightGlo Buffer): 1,227,230 RLU; Vmax (RLU) D/L-luciferin Detection Reagent Buffer ([5]; Detection Reagent Buffer): 515,688 RLU; Vmax (RLU) CS0280 BrightGlo Buffer ([6]; BrightGlo Buffer): 620,182 RLU; Vmax (RLU) CS0280 Detection Reagent Buffer ([6]; Detection Reagent Buffer): 21,505 RLU
2 | MK0147: SEQ ID NO: 113; H244W+S193A+N228D+L305F+S306P+I109V+C38R+F55I+Y108F+A316W+Y339M+T342S+V348I+W510R (protein) MADKNILYGPEPFYPLEDGTAGEQMFDALSRYAAIPGRIALTNAHTKENVLYEEILKLSCRLAESFKKYGLKQNDTIAVCSENSLQFFLPVIASLYLGIIVAPVNDKFVERELIHSLGIVKPRIVFCSKNTFQKVLNVKSKLKSIETIIILDLNEDLGGYQCLNNFISQNSDSNLDVKKFKPYSFNRDDQVAAIMFSSGTTGLPKGVMLTHKNIVARFSIAKDPTFGDAINPTSAILTVIPFHWGFGMMTTLGYFTCGFRVVLMHTFEEKLFLQSLQDYKVESTLLVPTLMAFLAKSALVEKYDFPHLKEIASGGWPLSKEIGEMVKKRFKLNFVRQGMGLSETTSAILITPKGDAKPGSTGKIVPLHAVKVVDPTTGKILGPNEPGELYFKGPMIMKGYYNNEEATKAIIDNDGWLRSGDIAYYDNDGHFYIVDRLKSLIKYKGYQVAPAEIEGILLQHPYIVDAGVTGIPDEAAGELPAAGVVVQTGKYLNEQIVQDYVASQVSTAKRLRGGVKFLDEIPKGSTGKIDRKVLRQMLEKHTNGHHHHHHHH |  |  |  |  |  |  |  |  |  |  |  |  | 71 °C | 7.12 µM | 1,101,042 RLU | 26.1 µM | 62,099 RLU | 
3 | MK0139: SEQ ID NO: 107; H244W+S193A+N228D+L305F+S306P+I109V+C38R+F55I+Y108F+A316W+Y339M+T342S+V348I+I240V (protein) MADKNILYGPEPFYPLEDGTAGEQMFDALSRYAAIPGRIALTNAHTKENVLYEEILKLSCRLAESFKKYGLKQNDTIAVCSENSLQFFLPVIASLYLGIIVAPVNDKFVERELIHSLGIVKPRIVFCSKNTFQKVLNVKSKLKSIETIIILDLNEDLGGYQCLNNFISQNSDSNLDVKKFKPYSFNRDDQVAAIMFSSGTTGLPKGVMLTHKNIVARFSIAKDPTFGDAINPTSAILTVVPFHWGFGMMTTLGYFTCGFRVVLMHTFEEKLFLQSLQDYKVESTLLVPTLMAFLAKSALVEKYDFPHLKEIASGGWPLSKEIGEMVKKRFKLNFVRQGMGLSETTSAILITPKGDAKPGSTGKIVPLHAVKVVDPTTGKILGPNEPGELYFKGPMIMKGYYNNEEATKAIIDNDGWLRSGDIAYYDNDGHFYIVDRLKSLIKYKGYQVAPAEIEGILLQHPYIVDAGVTGIPDEAAGELPAAGVVVQTGKYLNEQIVQDYVASQVSTAKWLRGGVKFLDEIPKGSTGKIDRKVLRQMLEKHTNGHHHHHHHH |  |  |  |  |  |  |  |  |  |  |  |  | 72 °C | 15.7 µM | 764,421 RLU | 128 µM | 35,633 RLU | 
4 | MK0145: SEQ ID NO: 111; H244W+S193A+N228D+L305F+S306P+I109V+C38R+F55I+Y108F+A316W+Y339M+T342S+V348I+D435G (protein) MADKNILYGPEPFYPLEDGTAGEQMFDALSRYAAIPGRIALTNAHTKENVLYEEILKLSCRLAESFKKYGLKQNDTIAVCSENSLQFFLPVIASLYLGIIVAPVNDKFVERELIHSLGIVKPRIVFCSKNTFQKVLNVKSKLKSIETIIILDLNEDLGGYQCLNNFISQNSDSNLDVKKFKPYSFNRDDQVAAIMFSSGTTGLPKGVMLTHKNIVARFSIAKDPTFGDAINPTSAILTVIPFHWGFGMMTTLGYFTCGFRVVLMHTFEEKLFLQSLQDYKVESTLLVPTLMAFLAKSALVEKYDFPHLKEIASGGWPLSKEIGEMVKKRFKLNFVRQGMGLSETTSAILITPKGDAKPGSTGKIVPLHAVKVVDPTTGKILGPNEPGELYFKGPMIMKGYYNNEEATKAIIDNDGWLRSGDIAYYDNDGHFYIVGRLKSLIKYKGYQVAPAEIEGILLQHPYIVDAGVTGIPDEAAGELPAAGVVVQTGKYLNEQIVQDYVASQVSTAKWLRGGVKFLDEIPKGSTGKIDRKVLRQMLEKHTNGHHHHHHHH | 5.72 µM | 368,599 RLU | 391 µM | 38,794 RLU | 0.136 µM | 334,536 RLU | 0.227 µM | 41,310 RLU | 6.83 µM | 2,891,897 RLU | 21.5 µM | 591,292 RLU | 72 °C | 11.9 µM | 1,193,838 RLU | 50.6 µM | 66,768 RLU | 
